From the RNAGym collection of RNA variant scans (doi:10.1093/molbev/msab373)

B1: Azoarcus group I ribozyme (parent)
chain: GUGCCUUGCGCCGGGAAACCACGCAAGGGAUGGUGUCAAAUUCGGCGAAACCUAAGCGCCCGCCCGGGCGUAUGGCAACGCCGAGCCAAGCUUCGGCGCCUGCGCCGAUGAAGGUGUAGAGACUAGACGGCACCCACCUAAGGCAAACGCUAUGGUGAAGGCAUAGUCCAGGGAGUGGCGAAAGUCACACAAACCGG

Variants of: B1
Assay: reverse-splicing fitness (ratio to wild type); higher = more active; in vitro selection; Mg2+ level not given
In short: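 An in vitro group I ribozyme library with randomized positions was T7-transcribed and gel-purified. In triplicate, 10 pmol RNA in EPPS pH 7.5 was reacted with 50 pmoles of a 30-nt RNA substrate for 1 h at 37 °C across several added MgCl2 levels (1–48 mM), then stopped with EDTA. Products were reverse transcribed from a substrate-complementary primer, PCR-amplified and sequenced (HiSeq 4000). Fitness is a variant's read proportion after selection over that before, normalised to wild type.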

| Variant | reverse-splicing fitness |
| --- | --- |
| C82A A111G A120G C150G C169A U176C | 0.0123 |
| C82A A111G A120G C150G C169A U176A | 0.0117 |
| C82A A111G A120G A145C C150G C169A U176G | 0.00564 |
| C82A A111G A120G A145C C150G C169A U176A | 0.00923 |
| C82A A111G A120G A145C C150G C169A U176C | 0.00743 |
| C82A A111G A120C C150G U176A | 0.0064 |
| C82A A111G A120C C150G U176C | 0.00892 |
| C82A A111G A120C C150G U176G | 0.00391 |
| C82A A111G A120C A145U C150U C169U U176C | 0.0124 |
| C82A A111G A120C A145U C150U C169U U176G | 0.00546 |
| C82A A111G A120G A145C C150U C169A | 0.00986 |
| C82A A111G A120G A145C C150U C169U | 0.0082 |
| C82A A111G A120G A145C C150U C169G | 0.00885 |
| C82A A111G A120G A145U C150A C169A U176C | 0.0121 |
| C82A A111G A120G A145U C150A C169A U176G | 0.00585 |
| C82A A111G A120G A145U C150A C169A U176A | 0.0161 |
| C82A A111G A120G A145U C150U C169A U176C | 0.0116 |
| C82A A111G A120G A145U C150U C169A U176A | 0.0141 |
| C82A A111G A120G A145U C150U C169A U176G | 0.00488 |
| C82A A111G A120G C150U C169U | 0.0102 |
| C82A A111G A120G C150U C169G | 0.0108 |

| Variant | reverse-splicing fitness |
| --- | --- |
| C82A A111G A120G C150U C169A | 0.00952 |
| C82A A111G A120G A145G C150U C169G U176G | 0.00529 |
| C82A A111G A120G A145G C150U C169G U176C | 0.0176 |
| C82A A111G A120G A145G C150U C169G U176A | 0.0157 |
| C82A A111G A120G C150A C169U U176A | 0.0244 |
| C82A A111G A120G C150A C169U U176G | 0.00838 |
| C82A A111G A120G C150A C169U U176C | 0.0219 |
| C82A A111G A120G A145C C150A C169G U176G | 0.00565 |
| C82A A111G A120G A145C C150A C169G U176A | 0.027 |
| C82A A111G A120G A145C C150A C169G U176C | 0.0158 |
| C82A A111G A120G C150G C169U U176A | 0.0124 |
| C82A A111G A120G C150G C169U U176C | 0.0135 |
| C82A A111G A120G C150G C169U U176G | 0.00657 |
| C82A A111G A120G A145G C169G U176C | 0.0276 |
| C82A A111G A120G A145G C169G U176G | 0.00435 |
| C82A A111G A120G A145G C169G U176A | 0.0204 |
| C82A A111G A120C C169A U176G | 0.00575 |
| C82A A111G A120C C169A U176A | 0.0173 |
| C82A A111G A120C C169A U176C | 0.0223 |
| C82A A111G A120G A145C C150U | 0.0102 |
| C82A A111G A120G A145C C150G | 0.00656 |

| Variant | reverse-splicing fitness |
| --- | --- |
| C82A A111G A120G A145C C150A | 0.0077 |
| C82A A111G A120G A145C C150G C169U U176C | 0.0141 |
| C82A A111G A120G A145C C150G C169U U176G | 0.00529 |
| C82A A111G A120G A145C C150G C169U U176A | 0.0129 |
| C82A A111G A120G C150A C169G | 0.00987 |
| C82A A111G A120G C150A C169A | 0.0103 |
| C82A A111G A120G C150A C169U | 0.00823 |
| C82A A111G A120G A145C C150A C169A U176C | 0.00609 |
| C82A A111G A120G A145C C150A C169A U176A | 0.0118 |
| C82A A111G A120G A145C C150A C169A U176G | 0.00578 |
| C82A A111G A120G A145U C169U U176C | 0.0158 |
| C82A A111G A120G A145U C169U U176A | 0.0204 |
| C82A A111G A120G A145U C169U U176G | 0.00416 |
| C82A A111G A120G A145U C150G C169A U176C | 0.0101 |
| C82A A111G A120G A145U C150G C169A U176G | 0.00526 |
| C82A A111G A120G A145U C150G C169A U176A | 0.00976 |
| C82A A111G A120G A145G C150U C169U | 0.011 |
| C82A A111G A120G A145G C150U C169A | 0.0119 |
| C82A A111G A120G A145G C150U C169G | 0.0113 |
| C82A A111G A120G C150A C169A U176C | 0.0184 |
| C82A A111G A120G C150A C169A U176A | 0.0228 |

| Variant | reverse-splicing fitness |
| --- | --- |
| C82A A111G A120G C150A C169A U176G | 0.00588 |
| C82A A111G A120G C150U C169G U176C | 0.0192 |
| C82A A111G A120G C150U C169G U176A | 0.0166 |
| C82A A111G A120G C150U C169G U176G | 0.0061 |
| C82A A111G A120G A145U C150U C169U U176C | 0.0152 |
| C82A A111G A120G A145U C150U C169U U176G | 0.00555 |
| C82A A111G A120G A145U C150U C169U U176A | 0.0192 |
| C82A A111G A120G A145C C150U U176C | 0.0104 |
| C82A A111G A120G A145C C150U U176G | 0.00504 |
| C82A A111G A120G A145C C150U U176A | 0.00898 |
| C82A A111G A120C A145U C169G U176A | 0.0135 |
| C82A A111G A120C A145U C169G U176G | 0.00526 |
| C82A A111G A120C A145U C169G U176C | 0.0172 |
| C82A A111G A120G C150A C169G U176C | 0.0245 |
| C82A A111G A120G C150A C169G U176A | 0.0211 |
| C82A A111G A120G C150A C169G U176G | 0.00613 |
| C82A A111G A120G A145U C150A C169U U176G | 0.00457 |
| C82A A111G A120G A145U C150A C169U U176C | 0.0157 |
| C82A A111G A120G A145U C150A C169U U176A | 0.0222 |
| C82A A111G A120G A145U C150G C169G U176C | 0.00461 |
